Source: patent US20220009979A1 (Alexion, published 2022)
Each block holds one binder with its values, some of them ahead of it.

Target: T1, Purified C3d (Quidel, San Diego, Calif.) (UniProt P01024 1002-1303, biotinylated via sulfo-NHS-LC linkage)
T1 construct: domain: C3d; also called immobilized C3d
Experiment: Octet BLI; biotinylated C3d immobilized on streptavidin biosensors, construct in solution at 2 uM, 600 s association, 1200 s dissociation

T1 sequence (P01024 1002-1303 limits assumed): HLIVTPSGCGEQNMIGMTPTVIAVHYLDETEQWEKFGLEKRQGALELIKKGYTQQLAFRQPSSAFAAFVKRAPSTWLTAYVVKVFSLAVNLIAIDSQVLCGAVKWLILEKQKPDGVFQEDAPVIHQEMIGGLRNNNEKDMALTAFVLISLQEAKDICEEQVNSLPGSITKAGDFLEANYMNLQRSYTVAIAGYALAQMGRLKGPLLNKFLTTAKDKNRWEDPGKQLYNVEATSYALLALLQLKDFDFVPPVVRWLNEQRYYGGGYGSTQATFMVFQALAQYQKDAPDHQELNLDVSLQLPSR

binding result: no binding (tested: 2 uM)
B1: Compound AP (Fc fusion)
chain: VECPPCPAPPVAGPSVFLFPPKPKDTLMISRTPEVTCVVVDVSQEDPEVQFNWYVDGVEVHNAKTKPREEQFNSTYRVVSVLTVLHQDWLNGKEYKCKVSNKGLPSSIEKTISKAKGQPREPQVYTLPPSQEEMTKNQVSLTCLVKGFYPSDIAVEWESNGQPENNYKTTPPVLDSDGSFFLYSRLTVDKSRWQEGNVFSCSVMHEALHNHYTQKSLSLSLGKGGGGAGGGGAGGGAGGGGSEDCNELPPRRNTEILTGSWSDQTYPEGTQAIYKCRPGYRSLGNVIMVCRKGEWVALNPLRKCQKRPCGHPGDTPFGTFTLTGGNVFEYGVKAVYTCNEGYQLLGEINYRECDTDGWTNDIPICEVVKCLPVTAPENGKIVSSAMEPDREYHFGQAVRFVCNSGYKIEGDEEMHCSDDGFWSKEKPKCVEISCKSPDVINGSPISQKIIYKENERFQYKCNMGYEYSERGDAVCTESGWRPLPSCEEKS

Kd: 744 nM
koff: 0.18 s⁻¹
kon: 242000 M⁻¹ s⁻¹
B2: Compound AC (Fc fusion)
chain: ISCGSPPPILNGRISYYSTPIAVGTVIRYSCSGTFRLIGEKSLLCITKDKVDGTWDKPAPKCEYFNKYSSCPEPIVPGGYKIRGSTPYRHGDSVTFACKTNFSMNGQKSVWCQANNMWGPTRLPTCVSVFPGGGGSDAAVECPPCPAPPVAGPSVFLFPPKPKDTLMISRTPEVTCVVVDVSQEDPEVQFNWYVDGVEVHNAKTKPREEQFNSTYRVVSVLTVLHQDWLNGKEYKCKVSNKGLPSSIEKTISKAKGQPREPQVYTLPPSQEEMTKNQVSLTCLVKGFYPSDIAVEWESNGQPENNYKTTPPVLDSDGSFFLYSRLTVDKSRWQEGNVFSCSVMHEALHNHYTQKSLSLSLGKGGGGAGGGGAGGGAGGGGSEDCNELPPRRNTEILTGSWSDQTYPEGTQAIYKCRPGYRSLGNVIMVCRKGEWVALNPLRKCQKRPCGHPGDTPFGTFTLTGGNVFEYGVKAVYTCNEGYQLLGEINYRECDTDGWTNDIPICEVVKCLPVTAPENGKIVSSAMEPDREYHFGQAVRFVCNSGYKIEGDEEMHCSDDGFWSKEKPKCVEISCKSPDVINGSPISQKIIYKENERFQYKCNMGYEYSERGDAVCTESGWRPLPSCEEKS

Kd: 679 nM
koff: 0.189 s⁻¹
kon: 278000 M⁻¹ s⁻¹
B3: Compound AQ (Fc fusion)
chain: ISCGSPPPILNGRISYYSTPIAVGTVIRYSCSGTFRLIGEKSLLCITKDKVDGTWDKPAPKCEYFNKYSSCPEPIVPGGYKIRGSTPYRHGDSVTFACKTNFSMNGQKSVWCQANNMWGPTRLPTCVSVFPGGGGSDAAVECPPCPAPPVAGPSVFLFPPKPKDTLMISRTPEVTCVVVDVSQEDPEVQFNWYVDGVEVHNAKTKPREEQFNSTYRVVSVLTVLHQDWLNGKEYKCKVSNKGLPSSIEKTISKAKGQPREPQVYTLPPSQEEMTKNQVSLTCLVKGFYPSDIAVEWESNGQPENNYKTTPPVLDSDGSFFLYSRLTVDKSRWQEGNVFSCSVMHEALHNHYTQKSLSLSLGK
